In test [1] the target is T1, E223A hNET (Homo sapiens, UniProt P23975, E223A). Kind of test: kinetic analysis of [3H]DA uptake, E223A hNET. It is filed as cell-based. Further details: expressed in transfected cells; host or cells: CHO cells, transient transfection with Lipofectamine 2000. As to the method: (§1) The kinetic parameters of [^3H]DA uptake, maximal velocity (Vmax) and Michalis-Menton constant (Km), were determined in CHO cells transiently transfected with WT hNET and its mutants seeded in 24 well plates as described above. […] After the 10-min incubation period, cells were incubated for 8 min at room temperature with a series of one of six concentrations of mixed [^3H]DA (0.001–1.0 μM, final concentration). The reaction was terminated by the removal of solution from the wells followed by three rapid washes of ice-cold 1 x KRH. Cells were lysed with 500 μL of 1 % SDS for 1 h and radioactivity measured as described above. Specific hNET-mediated DA uptake was calculated by subtracting the nonspecific uptake (in the presence of desipramine and nomifensine) from the total uptake.
(§2) Results are presented as mean ± SEM. The number of n represents the number of independent experiments from each experiment group. Kinetic parameters (Vmax and Km) were determined from saturation curves by nonlinear regression analysis using a one-site model with variable slope. IC50 values for the substrate and inhibitors for [^3H]DA uptake were determined from nonlinear regression analysis inhibition curves using a one-site model with variable slope. GraphPad Prism (version 10.1.2.) was used to calculate the kinetic parameters and IC50 values for substrate and inhibitors inhibiting [^3H]DA uptake or [^3H] WIN35428. For any experiment involving comparisons between unpaired samples, unpaired Student’s t tests were used to determine any difference between parameters between WT hNET and its mutants. Log-transformed IC50 values were used for statistical comparisons. One-way ANOVA comparisons with repeat measurements were used for analyzing the [^3H]DA and [^3H]MPP^+ efflux data. Significant differences between samples were analyzed with independent ANOVAs followed by post-hoc tests, which is indicated in the Results Section of the efflux experiments. All statistical analyses were performed using the IBM SPSS Statistics version 29 and returned values of at least p < 0.05 were considered significant.

In test [2] the target is T2, WT hNET (Homo sapiens, UniProt P23975). Kind of test: kinetic analysis of [3H]DA uptake, WT hNET. It is filed as cell-based. Further details: expressed in transfected cells; host or cells: CHO cells, transient transfection with Lipofectamine 2000. As to the method: as §1
Results are presented as mean ± SEM. […] Kinetic parameters (Vmax and Km) were determined from saturation curves by nonlinear regression analysis using a one-site model with variable slope. IC50 values for the substrate and inhibitors for [^3H]DA uptake were determined from nonlinear regression analysis inhibition curves using a one-site model with variable slope. […] Significant differences between samples were analyzed with independent ANOVAs followed by post-hoc tests, which is indicated in the Results Section of the efflux experiments. […]

The target in test [3] is T3, N198A hNET (Homo sapiens, UniProt P23975, N198A). In words: kinetic analysis of [3H]DA uptake, N198A hNET. The test is classed as cell-based. Further details: expressed in transfected cells; host or cells: CHO cells, transient transfection with Lipofectamine 2000. The protocol:
as §1, §2

The target in test [4] is T1, E223A hNET. In words: basal [3H]DA and [3H]MPP+ efflux, E223A hNET. The test is classed as cell-based. Also noted: expressed in transfected cells; host or cells: CHO cells, transient transfection with Lipofectamine 2000. To be noted: across 90 min, preloaded 50 nM, 20 min. The protocol:
(§3) To determine whether N198A or E223A hNET alters transporter conformational transients, [^3H]DA or [^3H]MPP^+ efflux was performed based on our previous studies ([Midde et al., 2015]; [Quizon et al., 2021]). Intact CHO cells in precoated 24-well plates transfected with WT hNET or its mutants were preloaded with [^3H]DA (50 nM final concentration) for 20 min or [^3H]MPP^+ (5 nM final concentration) for 30 min at room temperature. After the preloading period, cells were washed twice with 1 x KRH buffer before collecting fractional release samples. Total uptake of [^3H]DA or [^3H]MPP^+ at the zero time point was estimated from four wells per genotype that were lysed immediately with 1 % SDS after preloading period. Nonspecific uptake of [^3H]DA or [^3H]MPP^+ at zero time point was estimated from four wells per genotype that were incubated with the hNET inhibitors desipramine and nomifensine (100 μM and 10 μM final concentration, respectively) and lysed immediately with 1 % SDS after the preloading period. To collect fractional release, 500 μL of KRH buffer was added into a set of four wells and transferred to scintillation vials after 0 min as the initial fractional efflux. Fresh 500 μL of 1 x KRH buffer was added into the wells and incubated for 10 min then transferred to scintillation vials. Fractional efflux was collected every 10 min for 90 min ([^3H]DA) or 110 min ([^3H]MPP^+). […]

The target of test [5] is T3, N198A hNET. Kind of test: basal [3H]DA and [3H]MPP+ efflux, N198A hNET. It is filed as cell-based. Further details: expressed in transfected cells; host or cells: CHO cells, transient transfection with Lipofectamine 2000. Particulars: across 90 min, preloaded 50 nM, 20 min. The protocol: as §3
In test [6] the target is T1, E223A hNET. It is filed as binding. Also noted: expressed in transfected cells; host or cells: CHO cells, transient transfection with Lipofectamine 2000.
The target of test [7] is T2, WT hNET. The test is classed as binding. Also noted: expressed in transfected cells; host or cells: CHO cells, transient transfection with Lipofectamine 2000.
Test [8] addresses T3, N198A hNET. It is filed as binding. Also noted: expressed in transfected cells; host or cells: CHO cells, transient transfection with Lipofectamine 2000.
The target of test [9] is T2, WT hNET. In words: Ki of rTat1-86 inhibiting [3H]DA uptake in WT hNET cell suspensions. Also noted: expressed in transfected cells; host or cells: CHO cells, transient transfection with Lipofectamine 2000. The test is classed as cell-based. As to the method:
To determine the inhibitor constant (Ki) of rTat1-86 inhibiting DA uptake in WT hNET, cells in 10 cm plates were cultured and transfected with WT hNET as described above. All reagents were made in 1 x KRH containing 0.1 % Protease Inhibitor Cocktail 1 (P2850, Sigma-Aldrich) and 0.1 % Protease Inhibitor Cocktail (P8340, Sigma-Aldrich). Cells were detached and harvested as described above. The cell suspensions were then incubated with a range of rTat1-86 (0.25–140 nM, final concentrations) for 20 min at room temperature. […] The reaction was then terminated as described above.

The target of test [10] is T3, N198A hNET.
In test [11] the target is T1, E223A hNET.
Test [12] deals with T2, WT hNET.
Setting [13] is: per 10^6 cells, DA 0.001-1.0 μM.

The source of these data is publication PMC13046434 (European journal of pharmacology, 2025).

Like-named read-outs stand apart in the source and are kept apart here.

T2 sequence (P23975 whole entry): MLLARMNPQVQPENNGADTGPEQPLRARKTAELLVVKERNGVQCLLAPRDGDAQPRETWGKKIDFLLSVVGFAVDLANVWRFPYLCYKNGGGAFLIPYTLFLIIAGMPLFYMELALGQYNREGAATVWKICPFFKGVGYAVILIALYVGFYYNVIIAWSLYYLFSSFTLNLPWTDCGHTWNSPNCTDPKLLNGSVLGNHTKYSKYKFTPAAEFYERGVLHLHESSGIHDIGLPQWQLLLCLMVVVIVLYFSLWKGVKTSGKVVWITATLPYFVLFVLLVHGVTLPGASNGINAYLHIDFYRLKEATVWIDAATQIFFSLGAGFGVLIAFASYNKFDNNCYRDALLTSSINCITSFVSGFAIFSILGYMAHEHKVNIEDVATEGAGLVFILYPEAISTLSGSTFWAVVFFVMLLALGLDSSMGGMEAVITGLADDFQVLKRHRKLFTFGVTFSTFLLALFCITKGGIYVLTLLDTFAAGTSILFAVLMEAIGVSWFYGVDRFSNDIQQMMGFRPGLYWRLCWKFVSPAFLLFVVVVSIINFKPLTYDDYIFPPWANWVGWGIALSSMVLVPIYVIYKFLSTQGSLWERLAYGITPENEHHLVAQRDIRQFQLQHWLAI
T1 sequence (P23975 whole entry E223A): as the sequence (P23975 whole entry) above, with E223A counted along it
T3 sequence (P23975 whole entry N198A): as the sequence (P23975 whole entry) above, with N198A counted along it

On to `NCCc1ccc(O)c(O)c1` [[^3H]DA, 3,4-ethyl-2[N-P^3PH]dihydroxyphenylethylamine], for which the Km in [1] was found to be 66 ± 11 nM; in test [2], 57 ± 8 nM; in test [3] it was 84 ± 20 nM.
On to `[3H]c1c([3H])c(CCN)c([3H])c(O)c1O` [[^3H]DA, 3,4-ethyl-2[N-P^3PH]dihydroxyphenylethylamine], for which the “reduction in Vmax of [3H]DA uptake compared to WT hNET” value in [1] is reported as 71.2%; in [3] it was 82.6%. For the same compound, the entries for the “Vmax of [3H]DA uptake” value in [1] (setting [13]), in test [2] (setting [13]) and in [3] (setting [13]) were 151.1 ± 14.5 fmol/min/10^6, 525.4 ± 89.8 fmol/min/10^6 and 91.4 ± 16.4 fmol/min/10^6, respectively. Further, the “overall [3H]DA efflux compared to WT hNET” value in test [4] and in [5] was “significantly reduced” throughout.
As for `COC(=O)[C@H]1[C@@H](c2ccc(F)cc2)C[C@@H]2CC[C@H]1N2C` [[^3H]WIN35428], the “specific [3H]WIN35428 binding” value turned out to be 11806 ± 567 DPM in [6], 14083 ± 1198 DPM in test [7] and 11361 ± 652 DPM in test [8]. Besides, the “specific [3H]WIN35428 binding normalized as a percentage of WT hNET” value in test [6] was 83.83 ± 4.0; in test [7], 100 ± 8.5%; in test [8], 80.67 ± 4.6%.
Take “rTat1-86: recombinant HIV-1 transactivator of transcription (rTat1-86), purchased from ImmunoDX”: the “predicted occupancy of hNET molecules” value in [9] (8.75 nM rTat1-86, approximately 2.6-fold the Ki) is on record as ~ 72%; in [9] (140 nM rTat1-86, approximately 41.2-fold the Ki), ~ 98%. Besides, in test [9] (WT hNET, Tat concentrations from 8.75 nM to 140 nM), the “plateau of Tat's inhibitory effect on DA uptake” value was 65.2%. The Ki in test [9] (WT hNET, rTat1-86 0.25-140 nM, 20 min, 50 nM [3H]DA, read-out: Ki for inhibiting hNET-mediated DA uptake) turned out to be 3.4 nM. Further, the “Tat-induced reduction of [3H]DA uptake compared to its control” value in [10] (8.75 nM rTat1-86), in test [10] (140 nM rTat1-86) and in test [11] (8.75 nM rTat1-86) was “attenuated” each time. Further, the “specific [3H]DA uptake with Tat, direct counts” value in test [10] (8.75 nM rTat1-86 (without Tat: 1934 ± 210)) is reported as 1883 ± 175 DPM; in [10] (140 nM rTat1-86 (without Tat: 912 ± 212)), 954 ± 213 DPM; in test [11] (8.75 nM rTat1-86 (without Tat: 2113 ± 237)) it was 1950 ± 215 DPM; in [11] (140 nM rTat1-86 (without Tat: 1711 ± 261)), 1206 ± 239 DPM; in test [12] (8.75 nM rTat1-86 (without Tat: 2778 ± 240)) it was 2106 ± 191 DPM; in test [12] (140 nM rTat1-86 (without Tat: 1870 ± 238)) it was 1230 ± 163 DPM. For the same compound, the “reduction of specific [3H]DA uptake relative to control” value in test [11] (140 nM rTat1-86) worked out at 26.98%; in test [12] (8.75 nM rTat1-86) it was 24.2%; in test [12] (140 nM rTat1-86), 34.22%; in test [12] (140 nM rTat1-86, listed as recombinant Tat1-86), 34%.
